According to US20230374116A1:
Read-outs that look alike come from different tables or passages of the source.

B1: NbSA_D10 (VHH)
VHH: QVQLVESGGGLVQVGGSLRLSCAVSGRTSSDYSVGWFRRAQGKEREFVAALAWTVGATHYGDSVKGRFTVSRDNAKNMVYLQIDSLKPEDTGVYYCAGRYGAGLGFTERIYDYWGQGTQVTVSS
B2: 3_C5 (VHH)
VHH: QVQLVESGGGLVQAGGSLRLSCAASGRTLSMRRMSWFRQAPGKEREFVATINWSSGSIYVTDSVKDRFTISRDNAENTVHLQMNMLKPEDTAVYSCAVQVDIGGYLDGYDYWGQGTQVTVSS
B3: 8_G11 (VHH)
VHH: QVQLVESGGGLVQAGGSLRLSCAASGRTITEYTIGWFRQAPGKEREFVTLISKSTDSTWDADSVKGRFTIARDYAKNTVYLQMNSLKPEDTAVYYCAAGSFYGRDSDAGGYDYWGQGTQVTVSS
B4: 12_F11 (VHH)
VHH: QVQLVESGGGLVQAGGSLRLSCAASGGAFSTSAMGWFRQAPGKEREFVAVIGWRGVRTYYADSVKGRFTIARDNPQNRVYLEMSSLKSDDTGVYFCAASDGNYGLPWAHFEYDFWGQGIQVTSS
B5: NbSA_A10 (VHH)
VHH: QVQLVESGGGLVQAGDSLRLSCAASGRTFSTTRMAWFRQPPGKEREFVAAIFLNTGTTYYADPVKDRFAISRDNAKNTVYLQMNSLKPEDTAVYYCAAGRFSAAPLTQSTAFESWGQGTQVTVSA

Columns and labels:
Beta RBD-Fc [1] = target: Beta RBD-Fc
Beta RBD-Fc [2] = target: Beta RBD-Fc; remark: listed apart in the source

Binder | T1/2 (Beta RBD-Fc [1]) [min] | koff (Beta RBD-Fc [1]) [s⁻¹] | kon (Beta RBD-Fc [1]) [M⁻¹ s⁻¹] | Kd (Beta RBD) [nM] | Kd (Beta RBD-Fc [2]) [nM] | T1/2 (Beta RBD-Fc [2]) [min] | koff (Beta RBD-Fc [2]) [s⁻¹] | kon (Beta RBD-Fc [2]) [M⁻¹ s⁻¹]
B1 | 18 | 0.0006 | 640000 | 0.936 |  |  |  | 
B2 |  |  |  |  | 0.895 | 14 | 0.0008 | 900000
B3 |  |  |  |  | 0.443 | 20 | 0.00057 | 1.3e+06
B4 |  |  |  |  | 0.236 | 12 | 0.00096 | 4.1e+06
B5 |  |  |  | 0.03 |  |  |  | 
